Data: the nanobody polyreactivity screen of Harvey et al. (2022)

test: yeast display, Sf9 membrane polyspecificity reagent, FACS + sequencing; frameworks hold sequencing errors
Procedure, shortened: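 After 36–48 hours of galactose induction, yeast (Saccharomyces cerevisiae BJ5465) displaying a synthetic nanobody library were stained at 4 °C for 1 hour with 10% biotinylated, detergent-solubilized Sf9 membrane reagent. Streptavidin microbeads enriched the stained cells before FACS sorting into low and high (top ~1%) gates on anti-HA and streptavidin fluorescence. Each clone's polyreactivity label reflects its gate of origin.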

| Sequence | polyreactivity (PSR sort gate) |
| --- | --- |
| QVQLVESGGGLVQAGGSLRLSCAASGFIFHDNAMGWYRQAPGKERELVAAISRSGGRTYYADSVKGRFTISRDNAKNTVYLQMNSLKPEDTAVYYCAAVPPPGGLDYWGQGTQVTVSS | high polyreactivity |
| QVQLVESGGGLVQAGGSLRLSCAASGFIFHGYTMGWYRQAPGKEMDMVARISFTGGSTYYADSVKGRFTISRDNAKNTVYLQMNSLKPEDTAVYYCAATYSSYWARYYYWGQGTQVTVSS | high polyreactivity |
| QVQLVESGGGLVQAGGSLRLSCAASGFIFHHYAMGWYRPAPGKERELVAAISKSGGSTYYADSVKGRFTISRDNAKNTVYLQMNSLKPEDTAVYYCAAYKRSGLKYGHWGQGTQVTVSS | high polyreactivity |
| QVQLVESGGGLVQAGGSLRLSCAASGFIFHKYFMGWYTQAPGKERELVAAISRSGASTYYADSVKGRFTISRDNAKNTVYLQMNSLKPEDTAVYYCAKDYQTYSGSSDFDYWGQGTQVTVSS | high polyreactivity |
| QVQLVESGGGLVQAGGSLRLSCAASGFIFHNYAMGWYRQAPGKESELVAVITLRGGSTYYADSVKGRCTISRDNAKNTVYLQMNSLKPEDTAVYYCATGNSKGRRTVRYGYWGQGTQVTVSS | high polyreactivity |
| QVQLVESGGGLVQAGGSLRLSCAASGFIFHQNAMGWYRQAPGKERELVAAITRSGTSTYYADSVKGRFTISRDNAKNTVYLQMNSLKPEDTAVYYCAACLPYGYGYDYWGQGTEVTVSS | low polyreactivity |
| QVQLVESGGGLVQAGGSLRLSCAASGFIFHQNAMGWYRQAPGKERELVAAITRSGTSTYYADSVKGRFTISRDYAKISVYLQMNSLKPVDTAVFYCANDPVRVGRFGYEYWGKGTQVTVSS | low polyreactivity |
| QVQLVESGGGLVQAGGSLRLSCAASGFIFHYNAMGWYRQAPGKERELVAAITSGDSTDYADSVKGRFTISRDNAKNTVYLQMNSLKPEDTAVYYCAAYHREGRRDDYWGQGTQVTVSS | low polyreactivity |
| QVQLVESGGGLVQAGGSLRLSCAASGFIFIANAMGWYRQAPGKERELVAAISDGGSTYYADSVKGRFTISRDNAKNTVYLQMNSLKPEDTGVYYCAKDVTWAGHYDYWGQGTQVTVSS | low polyreactivity |
| QVQLVESGGGLVQAGGSLRLSCAASGFIFIGYAMGWYRHAPGKERELVAAISWSGGSTYYADSVKGRFTISRDNAKNTVYLQMNSLKPEDTAVYYCNAVLYRFAYNYWGQGTQVTVSS | low polyreactivity |
| QVQLVESGGGLVQAGGSLRLSCAASGFIFIKYAMGWYRQAPGKERELVAAISSSGGSTYYADSVKGRFTISRDNAKNTVYLQMNSLKPEDTAVYYCAARGTWSRYGYWGQGTQVTVSS | high polyreactivity |
| QVQLVESGGGLVQAGGSLRLSCAASGFIFIRYAMGWYRQAPGKERELVAAISASGVRTYYADSVKGRFTISRDNAKNTVYLQMNSLKPEDTAVYYCAVCSAWVYGIGRYYWGQGTQVTVSS | high polyreactivity |
| QVQLVESGGGLVQAGGSLRLSCAASGFIFIRYAMGWYRQAPGKERELVAAISPSGGSTYYADSVKGRFTISRDNAKNTVYLQMNSLKPEDTAVYYCAREWRTYYYFWDHYYIYDYWGQGTQVTVSS | high polyreactivity |
| QVQLVESGGGLVQAGGSLRLSCAASGFIFISYMGCDRQAPGKERELVAAISWSGTRTYYADSVKGRFTISRDNAKNTVYLQMNSLKPEDTAVYYCAARKYYDRYFYWGQGTQVTVSS | low polyreactivity |
| QVQLVESGGGLVQAGGSLRLSCAASGFIFIYNAMGWYRQAPGKEREMVAAITGSDGGTFYADSVKGRFTISRDNAKNTVYLQLNSLKPEDTAVYYCNADNGSRQSRDGYESWGQGTQVTVSS | low polyreactivity |
| QVQLVESGGGLVQAGGSLRLSCAASGFIFKGNAMGWYRQAPGKERELVAAISYSGGSTYYADSVKGRFTISRDNAKNTVYLQMNSLKPEDTAVYYCAALRWYHYGYWGQGTQVNVSS | high polyreactivity |
| QVQLVESGGGLVQAGGSLRLSCAASGFIFKGYAMGWYRQAPGKERELVAAISQRGSSTYYADSVKGRFTISRDNAKNTVYLQMNSLKPEDTAVYYCNALRHSKLDYYSWGQGTQVTVSS | high polyreactivity |
| QVQLVESGGGLVQAGGSLRLSCAASGFIFKIYTMGWYRQAPGKERELVAAITRRGGRTFYADSVKGRFTISRDNAKNTVYLQMNSLKPEDTAVYYCNAGTKYGTYIATGALKHDYWGQGTQVTVSS | low polyreactivity |
| QVQLVESGGGLVQAGGSLRLSCAASGFIFKRYAMGWYRQAPGKEREFVAAISWGGGNTYYADSVKGRFTISRDNAKNTVYLQMNSLKPEDTAVYYCAKVTSALKYGYWGQGTQVTVSS | high polyreactivity |
| QVQLVESGGGLVQAGGSLRLSCAASGFIFKRYAMGWYRQAPGKERELVAAITLSGGDTYYADSVKGRFTISRDNAKNTVYLQMNSLKPEDTAVYYCAARYMSTRTLYYYWGQGTQVTVSS | high polyreactivity |
| QVQLVESGGGLVQAGGSLRLSCAASGFIFKRYSMGWYRQAPGKERELVAAITSGGSTHYADSVKGRFTISRDNAKNTVYLQMNSLKPEDTAVYYCATRRYKWGVRYDYWGQGTQVTVSS | high polyreactivity |

| Sequence | polyreactivity (PSR sort gate) |
| --- | --- |
| QVQLVESGGGLVQAGGSLRLSCAASGFIFKSYAMGWYRQAPGKERELVAGITRRGGSTYYADSVKGRFTISRDNSKNSVYFQMISLKPEDTAVYYCNAGRKTADYDYWGQGTQVTVSS | high polyreactivity |
| QVQLVESGGGLVQAGGSLRLSCAASGFIFKSYTMGWYRQAPGKERELVADISKSGGSTYYADSVKGRFTISRDNAKNTVYLQMNSLKPEDTAVYYCNADIWLYVNNYSEYDYWGQGTQVTVSS | high polyreactivity |
| QVQLVESGGGLVQAGGSLRLSCAASGFIFLAYTMGWYRQAPGKERELVAAISASGGRTYYADSVKGRFTISRDNAKNTVYLQMNSLKPEDTAVYYCAAAGGRFIRYGYWGQGTQVTVSS | high polyreactivity |
| QVQLVESGGGLVQAGGSLRLSCAASGFIFLDYAMGWYRQAPGKERELVAAISSRGARTYYADSVKGRFTISRDNAKNTVYVQMNSLKPEDTAVYYCAARGPLDRYGYWGQGTQVTVSS | high polyreactivity |
| QVQLVESGGGLVQAGGSLRLSCAASGFIFLENDMGWYRQAPGKERELVASINSGSDTNYADSVKGRFTISRDNAKNTVYLQMNSLKPEDTAVYYCNASYNGVPARYDYWGQGTQVTVSS | low polyreactivity |
| QVQLVESGGGLVQAGGSLRLSCAASGFIFLETDKGWYRQAPGKERELVASINSGTNTYYADSLKGRFTISRDNAKNTVYVEMNSLKPEDSAVYYCNADDAYLVTQPYDDNYDYWGQGTQVTVSS | low polyreactivity |
| QVQLVESGGGLVQAGGSLRLSCAASGFIFLGNAMGWYRQAPGKERELVASISRGGSTNYADSVKGRFTISRDNAKNTVYLQMNSLKPEDTAVYYCAADLSDKFGYWGQGTQVTVSS | low polyreactivity |
| QVQLVESGGGLVQAGGSLRLSCAASGFIFLLNAMGWYRQAPGKERELVAAISWGGGSTYYADSVKGRFTISRDNAKNTVYLQMNSLKPEDTAVYYCAAKPGKTPLTGHRGPYDTGYGYWGQGTQVTVSS | low polyreactivity |
| QVQLVESGGGLVQAGGSLRLSCAASGFIFLPYFMAWYRQAHGKERELVAAISGVGGITYYADSVKGRFTISRDNAKNTVYLQMNSLKPEDTAVYYCAAESSYFVALNQFYTVEFYYWGQGTQVTVSS | low polyreactivity |
| QVQLVESGGGLVQAGGSLRLSCAASGFIFLQYADMGWYRQAPGKERELVAAISYIGGSTYYADSVKGRFTISRDNAKNTVYLQMNSLKPEDTAVYYCAAEYSTAFGEYYYWGQGTQVTVSS | high polyreactivity |
| QVQLVESGGGLVQAGGSLRLSCAASGFIFLSYAMGRYRQAPGKERELVAAISGRGGSTYYADSVKGRFTISRDNAKNTVYLQMNSLKPEDTAVYYCAVRRYRFPPGDYWGQGTQVTVSS | high polyreactivity |
| QVQLVESGGGLVQAGGSLRLSCAASGFIFLYAMGWSRQAPRKERELVAAISWSDTSTYYADSVKGRFTISRDNAKNTVYLQMNSLIPEDTAVYFCNAETWNYGDFDYWGQGTQVTVSS | high polyreactivity |
| QVQLVESGGGLVQAGGSLRLSCAASGFIFLYYAMGWYRQAPGKERELVADSSRGADTKYADSVKGRFTISRDNAKNNVYLQMNSLKPVDTAVYYCAARTGWPRVGFQFPAHVGFDYWGQGTQVTVSS | low polyreactivity |
| QVQLVESGGGLVQAGGSLRLSCAASGFIFNAYAMGWYRQAPGKERELVAAISTRCSNTYYADSVKGRFTISRDNAMNTVFLQMNSLIPEDTAVYYCAARGYVTYSKSNYWGQGTQVTVSS | high polyreactivity |
| QVQLVESGGGLVQAGGSLRLSCAASGFIFNKYAMGWYRQAPGKERELVATIRRDGSTNYADSVKGRFTISRDNAKNTVYLQMNSLKPEDTAVYYCAVRPYYWSRDYYWGQGTQVTVSS | high polyreactivity |
| QVQLVESGGGLVQAGGSLRLSCAASGFIFNRNAMGWYRQAPGKEREFVAAISTRGAGTYYADSVKGRFTISRDNAKNTVYLQMNSLKPEDTAVYYCAADKFRYGYYNRYSKVGYDYWGQGTQVTVSS | high polyreactivity |
| QVQLVESGGGLVQAGGSLRLSCAASGFIFNRYAMGWYRQAPGKERELVAAISYRGGGTYYADSVKGRFTISRDNAKNTVYLQMNSLKPEDTAVYYCAADSSYYYPMDYWGQGTQVTVSS | high polyreactivity |
| QVQLVESGGGLVQAGGSLRLSCAASGFIFNRYAMGWYRQAPGKERELVADITGGSTYYADSVKGLFTISRDNAKNTVFLQMNSLKPEDTAVYYCAADVLRISTLLFRGPGFDSWGQGTQVTVSS | low polyreactivity |
| QVQLVESGGGLVQAGGSLRLSCAASGFIFNSYAMGWYRQAPGKERELVATITNGGTTNYADSVKGRFTLSRDNATITVYLQMNSLKPEDTAVYYCAAVGPSVYHEYDYWGQGTQVTVSS | low polyreactivity |
| QVQLVESGGGLVQAGGSLRLSCAASGFIFNYNTMGWYRQAPGKERELVAAITWSGVSTYADSVKGRFTISRDNAKNTVYLQMNSLKPEDTAVYYCAASPYQRESVYDFGYDYWGQGTQVTVSS | low polyreactivity |
